Measurements: the supplement of paper PMC7125110
± gives the standard error. For part of these data: This sample holds only a part of the variants without activity.

B1: glmS ribozyme (parent)
chain: AUAAAAGCGCCAGAACUACAGAAAUGUAGUUGACGAGGAGGAGGUUUAUCGAAUUUUCGGCGGAUGCCUCCAAA

What was measured:
Conditions in all cases: with glucosamine-6-phosphate
glucosamine-6-phosphate [1] = variants of: B1; experiment: kcat; higher = faster cleavage; RNA array
Procedure, shortened: (§1)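 Barcoded ribozyme variants, transcribed in situ by E. coli RNA polymerase on sequenced MiSeq chips, were followed via a hybridised Cy3 probe at 37 °C. Glucosamine-6-phosphate ranged from 40 μM to 10 mM in HEPES/KCl/Mg(OAc)2 buffer. kobs came from decay fits to per-tile medians, and kcat and KM from weighted Michaelis–Menten fits.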

glucosamine-6-phosphate [2] = variants of: B1; experiment: KM; higher = weaker cofactor use; RNA array
Procedure, shortened: as §1

glucosamine-6-phosphate [3] = variants of: B1; experiment: self-cleavage kobs at 40 uM GlcN6P; higher = faster cleavage; RNA array
Procedure, shortened: as §1

glucosamine-6-phosphate [4] = variants of: B1; experiment: self-cleavage kobs at 160 uM GlcN6P; higher = faster cleavage; RNA array
Procedure, shortened: as §1

glucosamine-6-phosphate [5] = variants of: B1; experiment: self-cleavage kobs at 640 uM GlcN6P; higher = faster cleavage; RNA array
Procedure, shortened: as §1

glucosamine-6-phosphate [6] = variants of: B1; experiment: self-cleavage kobs at 2500 uM GlcN6P; higher = faster cleavage; RNA array
Procedure, shortened: as §1

glucosamine-6-phosphate [7] = variants of: B1; experiment: self-cleavage kobs at 10000 uM GlcN6P; higher = faster cleavage; RNA array
Procedure, shortened: as §1

| Variant | kcat (glucosamine-6-phosphate [1]) | KM (glucosamine-6-phosphate [2]) | self-cleavage kobs at 40 uM GlcN6P (glucosamine-6-phosphate [3]) | self-cleavage kobs at 160 uM GlcN6P (glucosamine-6-phosphate [4]) | self-cleavage kobs at 640 uM GlcN6P (glucosamine-6-phosphate [5]) | self-cleavage kobs at 2500 uM GlcN6P (glucosamine-6-phosphate [6]) | self-cleavage kobs at 10000 uM GlcN6P (glucosamine-6-phosphate [7]) |
| --- | --- | --- | --- | --- | --- | --- | --- |
| AUAAAAGCGCCAGAACUACAGAAAUGUAGUUGACGAGGAGGAGGUUUAUCGAAUUUUCGGCGGGUGCCUUCAAA | 0.00369 ± 0.001 s⁻¹ | 2.63 ± 1 mM | 7.77e-05 ± 7.5e-06 s⁻¹ | 0.000149 ± 2.2e-05 s⁻¹ | 0.000786 ± 7.7e-05 s⁻¹ | 0.00162 ± 0.00027 s⁻¹ | 0.00298 ± 0.00027 s⁻¹ |
| AUAAAAGCGCCACAACUACAGAAAUGUAGUUGACGAGGAGGAGGUUUAUCGAACUUUCGGCGGAUGCCUCCAAA | 0.000135 ± 1.9e-05 s⁻¹ | 2.87 ± 1 mM | – | – | – | 5.89e-05 ± 1.2e-05 s⁻¹ | 0.000107 ± 1.7e-05 s⁻¹ |
| AUAAAAGCGCCUGAACUACAGAAAUGUAGUUGACGAGGAGGAGGUUUAUCGAAUUUUCGGCGGAUCCCUCCAAA | 0.00201 ± 0.00014 s⁻¹ | 1.27 ± 0.16 mM | 6.36e-05 ± 1.1e-05 s⁻¹ | – | 0.00058 ± 0.00016 s⁻¹ | 0.00145 ± 0.00028 s⁻¹ | 0.00177 ± 0.00022 s⁻¹ |
| AUAAAAGCGCCCGAACUACAGAAAUGUAGUUGACGAGGAGGAGGUUUAUCGAAUUGUCGGCGGAUGCCUCCAAA | 0.0146 ± 0.003 s⁻¹ | 3.36 ± 0.91 mM | 0.000162 ± 2.5e-05 s⁻¹ | 0.000652 ± 0.00018 s⁻¹ | 0.00336 ± 0.00068 s⁻¹ | 0.0054 ± 0.0014 s⁻¹ | 0.0111 ± 0.0018 s⁻¹ |
| AUAAAAGCGCCAGGACUACAGAAAUGUAGUUGACGAGGAGGAGGUUUAUCGAAUUCUCGGCGGAUGCCUCCAAA | 0.021 ± 0.0052 s⁻¹ | 3.49 ± 1.2 mM | 0.000291 ± 4.2e-05 s⁻¹ | 0.000647 ± 0.00018 s⁻¹ | 0.0033 ± 0.00071 s⁻¹ | 0.0088 ± 0.0011 s⁻¹ | 0.0157 ± 0.0028 s⁻¹ |
| AUAAAAGCGCCAGAACUACAGAAAUGUAGUUGACGAGGAGGAGGUUUAUCUAAUUUUCGGCGGAUGCUUCCAAA | < 1e-05 s⁻¹ | – | – | – | – | – | – |
| AUAAAAGCGCCAGUACUACAGAAAUGUAGUUGACGAGGUGGAGGUUUAUCGAAUUUUCGGCGGAUGCCUCCAAA | 0.00814 ± 0.0024 s⁻¹ | 3.05 ± 1.2 mM | 0.000133 ± 1.7e-05 s⁻¹ | 0.000258 ± 6.7e-05 s⁻¹ | 0.00161 ± 0.00024 s⁻¹ | 0.00346 ± 0.00063 s⁻¹ | 0.00632 ± 0.00089 s⁻¹ |
| AUAAAAGCGACAGAACUACAGAAAUGUAGUUGACGAGGAGGAGGUUUAUCGAAUUUCCGGUGGAUGCCUCCAAA | < 1e-05 s⁻¹ | – | – | – | – | – | < 1e-05 s⁻¹ |
| AUAAAAGCGCCAGAAAUACAGAAAUGUAGUUGACGAGGAGGAGGUUUAUCGAAUUUACGGCGGAUGCCUCCAAA | 2.09e-05 ± 4.3e-06 s⁻¹ | – | < 1e-05 s⁻¹ | < 1e-05 s⁻¹ | – | – | – |
| AUAAAAGCGCCAGAACUACAGAAAUGUAGUUGUCGAGGAGGAGGUUUAUCGAAUUUUCGGGGGAUGCCUCCAAA | < 1e-05 s⁻¹ | – | < 1e-05 s⁻¹ | – | – | – | < 1e-05 s⁻¹ |
| AUAAAAGCGCCAGAAGUACAGAAAUGUAGUUGACGAGGAGGAGGUUUAUCCAAUUUUCGGCGGAUGCCUCCAAA | < 1e-05 s⁻¹ | – | < 1e-05 s⁻¹ | – | – | – | – |
| AUAAAAGCGCCAGAACUAAAGAAAUGUAGUUGACGAGGAGGAGGUUUAUCGAAUUUUCUGCGGAUGCCUCCAAA | 0.000115 ± 2.9e-05 s⁻¹ | – | – | – | – | – | 3.11e-05 ± 1.5e-05 s⁻¹ |
| AUAAAAGCGCCAGAACUACAGAAAUGUAGUUGACGAGGAGGAGGUUUUUCGAAUUUUCGGCGGGUGCCUCCAAA | 0.00341 ± 0.00044 s⁻¹ | 5.5 ± 1.1 mM | 2.41e-05 ± 7.5e-06 s⁻¹ | 8.32e-05 ± 1.7e-05 s⁻¹ | 0.000385 ± 7.8e-05 s⁻¹ | 0.0012 ± 0.00016 s⁻¹ | 0.00214 ± 0.00022 s⁻¹ |
| AUAAAAGCGCCAGAACUACAGAAAUGUAGUGGAAGAGGAGGAGGUUUAUCGAAUUUUCGUCGGAUGACUCCAAA | < 1e-05 s⁻¹ | – | – | – | – | – | – |
| AUAAAAGCGCCAGAACUACAGAAAUGUAGUUGUCGAGGACGAGGUUUAUCGAAUUUUCGGCGGAUGCCUCCAAA | 5.14e-05 ± 7.9e-06 s⁻¹ | – | – | – | – | – | – |
| AUAAAAGCGCUAGAACUACAGAAAUGUAGUUGACGAGGAGGAGGUUUAUCGAAUUUUCGGCGGAGGCCUCCAAA | 0.000263 ± 6.3e-05 s⁻¹ | 2.58 ± 1.2 mM | < 1e-05 s⁻¹ | – | 6.28e-05 ± 3.1e-05 s⁻¹ | – | 0.000227 ± 9.2e-05 s⁻¹ |
| AUAAAAGCGCCAGCACUACAGAAAUGUAGUUGACGAGGAGGAGGGUUAUCGAAUUUUCGGCGGAUGCCUCCAAA | 0.00127 ± 0.00013 s⁻¹ | 3.41 ± 0.6 mM | – | 6.63e-05 ± 1.5e-05 s⁻¹ | 0.000181 ± 2.6e-05 s⁻¹ | 0.000606 ± 9.4e-05 s⁻¹ | 0.000933 ± 9.1e-05 s⁻¹ |
| AUAAAAGCGCCAGAACUACAGAAAUGUAGAUGACGAGGAGGAGGUUUAGCGAAUUUUCGGCGGAUGCCUCCAAA | 0.000169 ± 3.4e-05 s⁻¹ | 3.78 ± 1.6 mM | – | – | – | 7.22e-05 ± 1.2e-05 s⁻¹ | 0.000119 ± 2.1e-05 s⁻¹ |
